The record followed here is patent US20260091122A1.

Assay [1] concerns the target membrane of human macrophages differentiated in vitro in the presence of M-CSF from CD14+ monocytes. The experiment in a line: flow cytometry on human macrophages, AF647 label, 37 C.
For assay [2], the target named is membrane of human CD14+ monocytes isolated from the peripheral blood of a healthy subject. The experiment in a line: flow cytometry on human monocytes, AF647 label, 37 C. For orientation: A flow cytometer gives signals particle by particle.

For the substance “non-specific antibody corresponding to an isotype control coupled to the Alexa Fluor (AF) 647 fluorochrome”, in assay [1], the MFI stood at 1640 MFI and the Ratio (MFI against that of the isotype control) came out at 1. In assay [2], the MFI is 265 MFI and the Ratio (MFI against that of the isotype control) is 1.
